The source of these data is patent publication US20260234247A1 (published 2026).

Substitutions are numbered along the chain they refer to.

The labels stand for the following.
B1: LK-RB2-2 (antibody, human IgG4 S228P, kappa, V domains shown)
VH: DVKLEESGEGLVKPGGSLKLSCAASGFTFSSYAMSWVRQTPEKRLEWVAYISSGGDYFHYADTVKGRFTISRDNARNTLYLQMSSLKSEDTAMYYCTREGAHYDSSYLAWFAHWGQGTLVTVSA
VL: DIQMTQSPASLSVSVGETVTITCRASENIYSNLAWYQQRQGKSPQLLVYAATNLADGVPSRFSGSGSGTQYSLKINSLQSEDFGSYYCQQFWDNPLTFGAGTKLELKR
B2: LK-RB2-30 (antibody, human IgG4 S228P, kappa, V domains shown)
VH: EVQLVESGGGLVQPGGSLKLSCAASGFTFNTDGMSWVRQTPDKRLELVAIINSNGGSTYYPDSVKGRFTISRDNAKNTLYLQMSSLKSEDTAMYYCAREGSYGSWFAYWGQGTLVTVSA
VL: B1 VL with Y30N, S31N, Q37H, R39K, Q90H, D93G, N94T, L96F, A100G, L106I
B3: LK-RB2-38 (antibody, human IgG4 S228P, kappa, V domains shown)
VH: EVKLVESGGGLVQPGGSLKLSCAASGFSFSDYYMYWVRQTPEKRLEWVAYISNGGGNTYYPDTVKGRFTISRDNAKNSLYLQMSRLKSEDTGMYYCARDREDWYFDVWGTGTTVTVSS
VL: DIVMTQSHTFMSTSVGDRVSITCKASQDVSTAVAWYQQKPGQSPKLLIYWASTRHTGVPDRFTGSGSGTDYTLTISSVQAEDLALYYCQQHYSTPRTFGGGTKLEIKR
B4: LK-RB2-46 (antibody, human IgG4 S228P, kappa, V domains shown)
VH: QVQMQQSDAELVKPGASVKISCKVSGYTFTDQIIHWMKQRPEQGLEWIGYIYPRDDSIMYNEKFKGKATLTADKSSSTANMQLNSLTSEDSAVYFCAYDAYWYFDVWGTGTTVIVSS
VL: DIVMTQSHKFMSASVGDRVSITCKASQDVNTAVAWYRQDPGQSPKLLIYWASTRHTGVPDRFTGSGSGTDYTLTINNFQAEDLALYYCQQHYSPPLTFGAGTKLELKR
B5: LK-RB2-27 (antibody, human IgG4 S228P, kappa, V domains shown)
VH: DVKLVESGGGLVKPGGSLKLSCAASGFTFSSYSMSWVRQTPEKRLEWVATISTGGSYTYYPDSVKGRFTISRDNAKNTLYLQMSSLKSEDTAMFYCTRGSMDYWGQGTSVTVSS
VL: DILMTQSPSSMSVSLGDTVSITCHASQDISSNIGWLQQKPGNSFKGLIYHGTNLEDGVPSRFSGSGSGADYSLTISSLESEDFADYYCVQYAQFPYTFGGGTKLEIKR
B6: LK-RB2-34 (antibody, human IgG4 S228P, kappa, V domains shown)
VH: B5 VH with L4V, G55S, P61S
VL: B5 VL with T52I
B7: LK-RB2-28 (antibody, human IgG4 S228P, kappa, V domains shown)
VH: B5 VH with V64M
VL: B5 VL with T22A
B8: LK-RB2-3 (antibody, human IgG4 S228P, kappa, V domains shown)
VH: QLQLQQSDAELVKPGASVKISCKVSGYSFTDHTIHWMKQRPEQGLEWIGYIYPRDGSTKENEKFTGKATLTADKSSSTAYMQLTSLTSEDSAVYFCTGSGFDYWGQGTSLTVSS
VL: DIKMTQSPSSMYASLGERVTITCKASQDIKSYLSWFQQKPGKSPKTLIYRANRLVDGVPSRFSGSGSGQDYSLTINSLEYEDMEIYYCLQYDEFPYTFGGGTKLEIKR
B9: LK-RB2-1 (antibody, human IgG4 S228P, kappa, V domains shown)
VH: QIQLVQSGPELKKPGETVKISCKASGYTFTTYGMSWVKQAPGKGLKWMGWINTYSGVSTYADDFKGRFAFSLETSASTAYLQINNLKNEDTATYFCARRYDYDGYAMDYWGQGTSVTVSS
VL: DIVMSQSPSSLAVSVGEKVTMSCKSSQSLLFSSNQKNYLAWYQQKPGQSPKLLIYWASTRESGVPDRFTGRGSGTDFTLTISSVKTEDLAVYYCQQYDTYPPTFGGGTKLEIKR
B10: p1E1 (antibody, human IgG4 S228P, kappa, V domains shown)
VH: EVQLQQWGAGLLKPSETLSLTCAVYGGSFSGYYWSWIRQPPGKGLEWIGEINHSGSTNYNPSLKSRVTISVDTSKNQFSLKLSSVTAADTAVYYCARLPTRWVTTRYFDLWGRGTLVTVSS
VL: ESVLTQPPSVSGAPGQRVTISCTGSSSNIGAGYDVHWYQQLPGTAPKLLIYGNSNRPSGVPDRFSVSKSGASASLAITGLQAEDEADYYCQSFDNSLSAYVFGGGTQLTVLG
B11: LK-RB2-29 (antibody, human IgG4 S228P, kappa, V domains shown)
VH: QVQLQQSGAELARPGASVKLSCKASGYTFTSYWMQWVKQRPGQGLEWIGAIYPGDGDTRYTQKFKGKATLTADKSSSTAYMQLSSLASEDSAVYYCARGYYGSSYADYFDYWGQGTTLTVSS
VL: DIQMTQSPASLSASVGETVTITCRASGNIHNYLAWYQQKQGKSPQLLVYNAKTLADGVPSRFSGSGSGTQYSLKINSLQPEDFGSYYCQHFWSTPPTFGGGTKLEIKR
B12: LK-RB2-42 (antibody, human IgG4 S228P, kappa, V domains shown)
VH: EFQLQQSGPELVKPGASVKISCKASGYSFTDYNMNWVKQSNGKSLDWIGIINPKYGTTAYNQKLRDKATLTVDQSSSTAYMQLNSLTSEDSAVYYCASLNWDEGFAYWGQGTLVTVSP
VL: DVLMTQTPLSLPVSLGDQASISCRSSQSIVHSNGNTYLEWYLQKPGQPPKLLIYKVSNRFSGVPERFSGSGSGTDFTLKINRVEAEDLGVYYCFQGSLVPPTFGGGTKLEIKR
B13: LK-RB2-43 (antibody, human IgG4 S228P, kappa, V domains shown)
VH: EVQLVESGGDLVKPGGSLKLSCAASGFTFSSYGMSWVRQTPDKRLEWVATISGGGTYTYYPDSVKGRFTISRDNAKNTLYLQMSSLKSEDTAMYYCASGAMDYWGQGTSVTVSS
VL: QIVLTQSPAILSASPGEKVTMTCSANSSVSSMYKYQQKPGSSPKPWIYGTSNLASGVPARFSGSGSGTSYSLTISSMEAADAATYYCQQYHSHPLTFGAGTKLELKR
B14: LK-RB2-44 (antibody, human IgG4 S228P, kappa, V domains shown)
VH: B13 VH
VL: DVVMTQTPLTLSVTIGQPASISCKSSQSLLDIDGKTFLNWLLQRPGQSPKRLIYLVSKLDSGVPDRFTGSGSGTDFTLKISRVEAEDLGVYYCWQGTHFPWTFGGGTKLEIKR
B15: LK-RB2-47 (antibody, human IgG4 S228P, kappa, V domains shown)
VH: QVQLKQSGPGLVQPSQSLSITCTVSGFSLISYGVHWVRQSPGKGLEWLGVIWSGGSTDYNAAFISRLSISKDNSKSQVFFKMNSLQADDTAIYYCARSFHYHGSTFDYWGQGTTLTVSS
VL: DIQMTQTTSSLSASLGDRVIISCRASQDINNYLNWYQQKPDGTVKLLIYFTSRLHSGVPSSFSGSGSGTDYSLTINNLEQEDIATYFCQQVNTLPYTFGGGTKLEIKR

T1 sequence (Q8N423 22-597): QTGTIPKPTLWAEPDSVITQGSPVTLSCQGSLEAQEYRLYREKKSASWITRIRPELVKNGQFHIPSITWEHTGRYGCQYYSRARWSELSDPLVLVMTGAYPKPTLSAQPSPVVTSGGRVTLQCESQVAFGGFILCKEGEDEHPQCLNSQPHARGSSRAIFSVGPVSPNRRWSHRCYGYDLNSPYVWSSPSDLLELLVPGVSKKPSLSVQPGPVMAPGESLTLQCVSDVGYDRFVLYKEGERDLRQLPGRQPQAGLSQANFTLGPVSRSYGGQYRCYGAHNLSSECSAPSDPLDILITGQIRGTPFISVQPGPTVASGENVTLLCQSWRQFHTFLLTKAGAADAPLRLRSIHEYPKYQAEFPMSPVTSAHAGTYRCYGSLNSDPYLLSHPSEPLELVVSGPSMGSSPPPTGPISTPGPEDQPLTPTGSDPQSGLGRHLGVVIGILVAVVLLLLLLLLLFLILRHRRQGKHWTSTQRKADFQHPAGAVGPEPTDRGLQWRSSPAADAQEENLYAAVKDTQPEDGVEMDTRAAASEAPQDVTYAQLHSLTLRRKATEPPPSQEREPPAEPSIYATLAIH

The first test addresses T1, human LILRB2 expressed on CHOK1 cells (CHOK1-hLILRB2) (human, UniProt Q8N423 22-597).
T1 construct: whole, on cells; also called CHOK1-LILRB2
Nature of the test: FACS binding to CHOK1-hLILRB2 cells.
Molecule B1 yielded an EC50 of 0.25 nM.
Take B2: the binding result is reported as “no binding”.
As to B3, the binding result was “no binding”.
B4 returned an EC50 of 0.35 nM.
B5: the binding result was “no binding”.
The same measure, in the same setting: to B6 belongs “no binding”; to B7, “no binding”.
B8 showed a half-maximal effective concentration (EC50) of 0.4 nM.
Same read-out and setting: to B9 belongs 0.24 nM; to B10, 0.64 nM.
With B11, the binding result is recorded as “no binding”.
Same read-out and setting: to B12 belongs “no binding”.
As to B13, the binding result is recorded as “no binding”.
B14: the binding result is “no binding”.
Still for that read-out and setting: to B15 belongs “no binding”.

In another test the target is T2, human LILRB1 expressed on CHOK1 cells (CHOK1-hLILRB1) (human, UniProt Q8NHL6 24-650).
T2 construct: whole, on cells; also called CHOK1-LILRB1
T2 sequence (Q8NHL6 24-650): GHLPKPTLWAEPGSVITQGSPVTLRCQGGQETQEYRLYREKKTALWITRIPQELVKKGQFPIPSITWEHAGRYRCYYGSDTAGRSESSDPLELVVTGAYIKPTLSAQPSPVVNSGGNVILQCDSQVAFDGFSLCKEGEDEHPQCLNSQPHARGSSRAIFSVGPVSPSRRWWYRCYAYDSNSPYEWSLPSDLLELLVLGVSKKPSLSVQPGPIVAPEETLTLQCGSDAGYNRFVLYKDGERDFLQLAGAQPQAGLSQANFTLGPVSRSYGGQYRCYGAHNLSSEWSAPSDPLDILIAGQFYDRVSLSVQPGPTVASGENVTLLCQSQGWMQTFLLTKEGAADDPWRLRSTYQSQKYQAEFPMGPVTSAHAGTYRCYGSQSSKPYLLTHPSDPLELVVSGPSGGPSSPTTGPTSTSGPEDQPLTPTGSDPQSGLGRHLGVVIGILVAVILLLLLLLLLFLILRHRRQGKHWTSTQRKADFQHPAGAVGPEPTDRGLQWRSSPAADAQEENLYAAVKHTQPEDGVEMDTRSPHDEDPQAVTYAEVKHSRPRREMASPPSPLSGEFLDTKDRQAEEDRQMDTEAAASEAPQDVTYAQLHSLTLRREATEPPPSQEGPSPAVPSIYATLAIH
The test can be described thus: FACS binding to CHOK1-hLILRB1 cells.
For the molecule B1, the binding result is “no binding”.
Still for that read-out and setting: to B2 belongs “no binding”; to B3, “no binding”; to B4, “no binding”.
The same measure, in the same setting: under B5 stands “no binding”; under B6, “no binding”; under B7, “no binding”.
The same measure, in the same setting: to B8 belongs “no binding”; to B9, “no binding”.
Turning to B10, the binding result is recorded as “no binding”.
Still for that read-out and setting: to B11 belongs “no binding”; to B12, “no binding”.
On the same count and under the same terms, under B13 stands “no binding”; under B14, “no binding”; under B15, “no binding”.

A further test has as its target T1, human LILRB2 expressed on CHOK1 cells …. The test can be described thus: cell based RBA, flow cytometry: blocking of HLA-G binding to CHOK1-hLILRB2 cells.
As for B1, the EC50 was 0.134 nM and the “Top Inhibition” value is 74.5%.
Taken in the same sequence, the figures for B8 were 0.946 nM and 73.2%.
Taken in the same sequence, the figures for B9 were 0.323 nM and 73.7%.
